Source: patent publication US20250388666A1 (BRIGHAM AND WOMEN S HOSPITAL, published 2025)
Where “and” joins values, the source holds several entries; their conditions need not be identical. Equal entries are not always repeated. Values belong to the binder of their own block, whether it stands above or below them.

Assays:
[1] = target: T1, CEACAM6 on transfected HeLa cells (UniProt P40199 35-320, limits assumed); assay: flow cytometry, transfected HeLa
T1 construct: whole, on cells; also called C6
T1 sequence (looked up): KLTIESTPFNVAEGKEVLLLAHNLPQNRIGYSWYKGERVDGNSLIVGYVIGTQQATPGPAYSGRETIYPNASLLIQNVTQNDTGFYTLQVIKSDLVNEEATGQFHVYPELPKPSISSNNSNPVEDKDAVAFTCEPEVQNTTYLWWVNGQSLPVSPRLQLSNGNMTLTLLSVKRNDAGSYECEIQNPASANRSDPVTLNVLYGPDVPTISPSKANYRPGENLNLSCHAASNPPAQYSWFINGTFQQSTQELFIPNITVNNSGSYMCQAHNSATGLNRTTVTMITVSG
Summary of the method: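 HeLa cells transfected separately with CEACAM1, CEACAM5 or CEACAM6 were stained with test antibodies, then fluorochrome-conjugated anti-isotype (human IgG4 or mouse IgG1) secondary plus DAPI viability dye. Binding read by flow cytometry.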

[2] = target: T2, CEACAM1 (Sino Biological) (human, UniProt P13688 35-428, limits assumed); assay: SPR multi-cycle, IgG on Protein A
T2 construct: may be the same as CEACAM1-HIS; also called hCEACAM1; biotinylated soluble CEACAM1
T2 sequence: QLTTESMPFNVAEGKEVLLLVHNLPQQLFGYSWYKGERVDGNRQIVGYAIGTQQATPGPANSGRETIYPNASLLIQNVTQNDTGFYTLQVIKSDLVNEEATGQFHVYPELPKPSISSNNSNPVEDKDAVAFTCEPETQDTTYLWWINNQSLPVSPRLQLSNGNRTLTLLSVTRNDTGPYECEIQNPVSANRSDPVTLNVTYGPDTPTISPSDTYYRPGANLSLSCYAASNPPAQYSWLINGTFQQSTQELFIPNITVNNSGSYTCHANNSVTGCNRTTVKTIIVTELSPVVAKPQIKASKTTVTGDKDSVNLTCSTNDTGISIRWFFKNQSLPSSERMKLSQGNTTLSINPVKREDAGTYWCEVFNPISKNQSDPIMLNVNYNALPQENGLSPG

[3] = target: T3, CEACAM1-HIS (Sino Biologics Inc.) (Homo sapiens (Human), UniProt P13688 35-428); assay: SPR single-cycle, IgG on Protein A
T3 construct: bought; not shown: His tag
T3 sequence: T2 sequence
Summary of the method: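 Single-cycle kinetics at 25° C in HBS-P+ (pH 7.4), antibodies from HEK EBNA supernatants at 1 μg/mL captured on Protein A (~100 RU). CEACAM1 injected at 3.125–50 nM (2-fold, 5 points), 150 s association, 150 s dissociation. Reference-channel and blank-run subtraction applied.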

- relative fluorescence intensity [1]: 1.31
- relative KD to Parent [2]: 1 ratio
B1: VH2 N56Q/Vκ4 S27(f)A IgG (antibody, V domains shown)
VH: EVQLLESGGGLVQPGGSLRLSCAASGFSFSDYYLYWVRQAPGKGLEWVATISVGGGQTSYADSVKGRFTISRDNSKNTLYLQMNSLRAEDTAMYYCTRGLYYGPAWFAYWGQGTLVTVSS
VL: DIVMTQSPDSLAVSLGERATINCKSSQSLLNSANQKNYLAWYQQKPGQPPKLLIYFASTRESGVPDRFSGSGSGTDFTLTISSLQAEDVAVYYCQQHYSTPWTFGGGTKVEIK
notes: IgG4 S241P, kappa; also called Parent; Parent IgG

- Kd [3]: 0.0476 µM and 0.0432 µM
B2: chimeric parental antibody VH0/Vκ0 (antibody, IgG4, V domains shown)
VH: EVQLVESGGGFVKPGGSLKLSCAASGFSFSDYYLYWVRQTPEKRLEWVATISVGGGNTSYPDSVKGRFTISRDNAKNNLYLQMSSLKSEDTAMYYCTRGLYYGPAWFAYWGQGTLVTVSA
VL: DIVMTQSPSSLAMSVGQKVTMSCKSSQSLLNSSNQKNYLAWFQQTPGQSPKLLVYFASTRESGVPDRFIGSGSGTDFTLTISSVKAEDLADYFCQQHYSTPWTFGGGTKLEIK
notes: IgG4 (S241P), kappa; also called Chimera; chimeric antibody
